Test results taken from patent US20260365758 (published 2026).
Values belong to the binder of their own block, whether it stands above or below them.

How the values were obtained:
human STEAP1 [1] = target: human STEAP1 (human); experiment: FACS, LNCaP-X1.2 cells, bivalent
cynomolgus STEAP1 = cynomolgus STEAP1 (cynomolgus monkey); experiment: KinExA, monovalent, live 293 cells
human STEAP1 [2] = target: human STEAP1 (human); experiment: KinExA, monovalent, live 293 cells

Sequence of human STEAP1 (human) (chain, as listed by the source): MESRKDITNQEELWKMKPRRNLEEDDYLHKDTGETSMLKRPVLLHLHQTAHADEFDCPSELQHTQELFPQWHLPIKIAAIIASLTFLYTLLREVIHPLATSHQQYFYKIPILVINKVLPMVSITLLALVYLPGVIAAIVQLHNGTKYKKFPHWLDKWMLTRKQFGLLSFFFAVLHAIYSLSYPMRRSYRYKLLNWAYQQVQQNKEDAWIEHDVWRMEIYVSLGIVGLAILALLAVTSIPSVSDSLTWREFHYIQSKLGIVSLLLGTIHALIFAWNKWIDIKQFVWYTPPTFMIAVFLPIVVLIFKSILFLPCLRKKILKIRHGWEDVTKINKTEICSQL
Sequence of cynomolgus STEAP1 (cynomolgus monkey) (chain, as listed by the source): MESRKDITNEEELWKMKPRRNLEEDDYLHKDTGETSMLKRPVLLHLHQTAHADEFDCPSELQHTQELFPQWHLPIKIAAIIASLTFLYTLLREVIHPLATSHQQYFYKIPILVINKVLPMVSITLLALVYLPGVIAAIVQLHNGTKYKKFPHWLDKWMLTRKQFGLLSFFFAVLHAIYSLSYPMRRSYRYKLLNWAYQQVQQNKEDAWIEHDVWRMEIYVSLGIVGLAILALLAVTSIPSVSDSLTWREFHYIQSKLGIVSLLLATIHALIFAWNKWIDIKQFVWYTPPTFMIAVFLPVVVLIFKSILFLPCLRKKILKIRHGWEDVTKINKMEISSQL

- EC50 (human STEAP1 [1]): 3.5 nM
B1: vandortuzumab (antibody, V domains shown)
VH: EVQLVESGGGLVQPGGSLRLSCAVSGYSITSDYAWNWVRQAPGKGLEWVGYISNSGSTSYNPSLKSRFTISRDTSKNTLYLQMNSLRAEDTAVYYCARERNYDYDDYYYAMDYWGQGTLVTVSS
VL: DIQMTQSPSSLSASVGDRVTITCKSSQSLLYRSNQKNYLAWYQQKPGKAPKLLIYWASTRESGVPSRFSGSGSGTDFTLTISSLQPEDFATYYCQQYYNYPRTFGQGTKVEIK

- Kd (cynomolgus STEAP1): 14 nM
- Kd (human STEAP1 [2]): 29 nM
B2: huAb44.v6.05-40G5c (STEAP1 arm) (antibody, V domains shown)
VH: EVQLVESGGGLVQPGGSLRLSCAASGFTFSDHYMAWVRQAPGKGLVWVSYIDYDGGSTSYGDSVKGRFTISRDNAKSTLYLQMNSLRAEDTAVYYCARRSGFYHVGYAMNAWGQGTTVTVSS
VL: DIVLTQTPLSLSVTPGQPASISCRSSQSLEYSDGYTYLEWYLQKPGQSPQLLIYGVSNRFSGVPDRFSGSGSGTDFTLKISRVEAEDVGVYYCFQATHDPLTFGGGTKVEIK

- EC50 (human STEAP1 [1]): 1.9 nM
B3: huAb44.v6.05 (antibody, V domains shown)
VH: B2 VH
VL: B2 VL
